Test results from FireProtDB (doi:10.1002/prot.340230110).

B1: Regulatory protein rop, P03051 (parent)
chain: MTKQEKTALNMARFIRSQTLTLLEKLNELDADEQADICESLHDHADELYRSCLARFGDDGENL

Variants of: B1
Details: Escherichia coli, pH 6, Thermal, DSC, Sodium phosphate/Sodium sulfate 10 mM/10 mM/, reversible: yes, structure 1ROP, whole UniProt chain shown

| Variant | ddG of mutation (higher = less stable) (25 °C) [kcal/mol] | heat capacity change of unfolding (25 °C) [kcal/mol/K] | unfolding free energy (25 °C) [kcal/mol] | Tm [°C] | change of melting temperature, mutant - wild type (higher = more stable) [°C] | heat capacity change of unfolding [kcal/mol/K] | unfolding enthalpy (calorimetric) [kcal/mol] | unfolding enthalpy (van 't Hoff) [kcal/mol] |
| --- | --- | --- | --- | --- | --- | --- | --- | --- |
| L41A | 6.12 | 1.65 | 11 | 52.9 | -18.1 | 1.65 | 80.1 | 92.8 |
| L41V | 2.53 | 1.99 | 14.6 | 65.3 | -5.7 | 1.99 | 110 | 114 |
